From patent US20210155703A1 (Bristol-Myers Squibb, published 2021)

How the values were obtained:
[1] = molecular target: T1, human CD27 on human T cells (human, UniProt P26842 21-260); assay: flow cytometry on human T cells, FIG. 1A
T1 construct: Native CD27 on primary human T cells; also called hCD27
T1 sequence: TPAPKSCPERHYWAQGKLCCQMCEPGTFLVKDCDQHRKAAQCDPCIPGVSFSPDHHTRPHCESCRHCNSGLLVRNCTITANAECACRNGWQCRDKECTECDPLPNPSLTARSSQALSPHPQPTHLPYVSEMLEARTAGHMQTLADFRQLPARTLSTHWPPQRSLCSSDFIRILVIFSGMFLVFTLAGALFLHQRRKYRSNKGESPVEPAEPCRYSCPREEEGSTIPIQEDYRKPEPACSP

[2] = molecular target: T1, human CD27 on human T cells; assay: cell-based or functional assay
[3] = molecular target: T1, human CD27 on human T cells; assay: blocking assay by flow cytometry: human T cells with antibody in the presence of 10 µg/ml soluble human CD70; blocked ligand CD70 detected with labelled anti-CD70
Source text: Binding of the Abs in the assay was detected by a labeled anti-human IgG Ab (*, ahIgG). […] Binding of the ligand blocking 1F5 Ab was not detected. […] CD70 was detected by a labeled anti-CD70 Ab (*, aCD70). […] Binding of CD70 decreased with increasing concentrations of the ligand blocking 1F5 Ab. “MFI,” “hIgG1,” and “FL2” are as described for FIG. 1. “FL1” in (B) indicates measurement in fluorescence channel 1 (FL1).
The presence or absence of binding of the Abs was detected using a labeled anti-human IgG Ab. […] See FIG. 2A, showing a schematic of the assay, and FIG. 2B, showing a graph of the results. Binding of the ligand blocking 1F5 Ab was not detected. Id. […] CD70 was detected by a labeled anti-CD70 Ab.

[4] = molecular target: T2, cynomolgus CD27 on cynomolgus T cells (cynomolgus monkey); assay: flow cytometry on cynomolgus T cells, FIG. 1B
T2 construct: whole, on cells; also called cCD27

[5] = molecular target: T2, cynomolgus CD27 on cynomolgus T cells; assay: estimated in vivo serum EC50 for 50% CD27 receptor occupancy in monkey whole blood, Emax model
Source text: Criteria for evaluation included clinical observations, hematology, PK, CD27 receptor occupancy (RO), circulating sCD27 levels, lymphocyte subset analysis, cytokine levels, and ADA determination. Blood samples were obtained prior to dosing and at various intervals up to 42 days post-dose. Overall, there were no adverse findings, including no adverse clinical observations and no changes in hematologic parameters. There were time- and dose-dependent increases in circulating sCD27 levels. […] There were no significant changes in circulating lymphocyte subsets including CD4⁺, Treg (Foxp3⁺/CD4⁺), CD8⁺ T, CD20⁺ B, and NK cells, or circulating cytokine levels.

[6] = molecular target: T1, human CD27 on human T cells; assay: flow cytometry on human T cells, n=5; mean of n=5
[7] = molecular target: T3, human CD27 (hCD27), form in the assay not stated (human, UniProt P26842 20-260, limits assumed); assay: Scatchard analysis; format not stated; Scatchard analysis, not SPR; antibody, format not stated
T3 construct: Whole entry named
T3 sequence: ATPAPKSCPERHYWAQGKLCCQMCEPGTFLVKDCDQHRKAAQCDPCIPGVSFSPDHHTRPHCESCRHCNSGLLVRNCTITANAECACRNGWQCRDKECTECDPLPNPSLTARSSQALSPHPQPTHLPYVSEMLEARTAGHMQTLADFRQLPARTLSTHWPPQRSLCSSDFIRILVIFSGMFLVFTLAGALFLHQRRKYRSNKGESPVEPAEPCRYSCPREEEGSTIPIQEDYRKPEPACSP

[8] = molecular target: T1, human CD27 on human T cells; assay: flow cytometry on human T cells pretreated with 10 µg/ml human CD70; bound antibody detected with labelled anti-human IgG
[9] = molecular target: T1, human CD27 on human T cells; assay: flow cytometry on human T cells, n=5; lowest of the n=5 determinations
[10] = molecular target: T2, cynomolgus CD27 on cynomolgus T cells; assay: binding to cynomolgus T cells
[11] = molecular target: T1, human CD27 on human T cells; assay: flow cytometry on human T cells, n=5; highest of the n=5 determinations
[12] = molecular target: T4, hCD27-mouseFc or hCD27-Histag proteins (human, UniProt P26842 20-191); assay: SPR at 25 C, Fab with hCD27-mouseFc or hCD27-Histag, 1:1 fit binding model; 25 C; lower end of the measured values
T4 construct: not shown: mouse Fc or His tag
T4 sequence: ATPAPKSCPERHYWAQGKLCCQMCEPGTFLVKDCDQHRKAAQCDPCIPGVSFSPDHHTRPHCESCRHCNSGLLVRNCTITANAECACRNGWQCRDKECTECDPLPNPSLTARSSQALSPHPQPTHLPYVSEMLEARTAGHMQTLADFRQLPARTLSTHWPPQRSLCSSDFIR
Method: (§1) The measured values were 41-44 nM at 37° C. and 13-16 nM at 25° C. […] The kinetic analysis used a 1:1 fit binding model.

[13] = molecular target: T4, hCD27-mouseFc or hCD27-Histag proteins; assay: SPR at 37 C, Fab with hCD27-mouseFc or hCD27-Histag, 1:1 fit binding model; 37 C; lower end of the measured values
Method: as §1

[14] = molecular target: T4, hCD27-mouseFc or hCD27-Histag proteins; assay: SPR; due to an increased dissociation rate, association rate unchanged
Method: as §1

B1: Reference HuMAb 1F5 (human anti-hCD27 mAb, ligand blocking) (antibody, human IgG1, kappa, V domains shown)
VH: QVQLVESGGGVVQPGRSLRLSCAASGFTFSSYDMHWVRQAPGKGLEWVAVIWYDGSNKYYADSVKGRFTISRDNSKNTLYLQMNSLRAEDTAVYYCARGSGNWGFFDYWGQGTLVTVSS
VL: DIQMTQSPSSLSASVGDRVTITCRASQGISRWLAWYQQKPEKAPKSLIYAASSLQSGVPSRFSGSGSGTDFTLTISSLQPEDFATYYCQQYNTYPRTFGQGTKVEIKR
notes: also called 1F5-IgG1
For B1, the EC50 [1] was 1.09 nM, the “IFN-γ production of CD4+CD45RO+ memory T cells, CHO-svCD3-CD32a co-culture (EC50)” value [2] was 0.089 nM and the “IFN-γ secretion in FIG. 6(B), CHO-svCD3-CD32a co-culture (EC50)” value [2] was 0.0402 nM. For the same binder, the “T cell proliferation in FIG. 6(A), CHO-svCD3-CD32a co-culture (EC50)” value [2] was 0.0357 nM, the “proliferation of CD4+CD45RO+ memory T cells, CHO-svCD3-CD32a co-culture (EC50)” value [2] was 0.073 nM and the “IC50 (read off the curve)” value [3] was roughly 1 nM. It also gave an EC50 [4] of 1.8 nM.

B2: HuMAb BMS-986215 (human IgG1 anti-human CD27 monoclonal antibody) (antibody, V domains shown)
VH: QVQLVQSGSEVKKPGASVKVSCKASGYTFTTYAMNWVRQAPGQGLEWMGWINTNTGNPTYAQGFTGRFVFSLDTSVNTAYLQISSLKAEDTAVYYCARDFGGFDYWGQGTLVTVSS
VL: AIQLTQSPSSLSASVGDRVTITCRASQGISSALAWYQQKPGKAPKLLINDASSLESGVPSRFSGSGSGTDFTLTISSLQPEDFATYYCQQFNNYPRTFGQGTKVEIKR
modifications: N-terminal glutamine to pyroglutamate; N-glycan at N297 (Table 4)
notes: Full-length human IgG1 produced in CHO cells; derived from clone 16D9
B2 showed an EC50 [5] of 0.08 nM, an EC50 [6] of 0.044 nM and a Kd [7] of 0.045 nM. The “EC50 (read off the curve)” value [8] was roughly 0.1 nM, the EC50 [1] was 0.0221 nM and the “IFN-γ production of CD4+CD45RO+ memory T cells, CHO-svCD3-CD32a co-culture (EC50)” value [2] was 0.015 nM. For the same binder, the “IFN-γ secretion in FIG. 6(B), CHO-svCD3-CD32a co-culture (EC50)” value [2] was 0.00624 nM, the “IFN-γ secretion, CHO-svCD3-CD32a co-culture (mean EC50)” value [2] was 0.0078 nM and the “IL-2 release from SEB-stimulated PBMCs, with PD-1 blockade against without” value [2] was 2 fold. The “T cell proliferation in FIG. 6(A), CHO-svCD3-CD32a co-culture (EC50)” value [2] was 0.0045 nM, the “T cell proliferation, CHO-svCD3-CD32a co-culture (mean EC50)” value [2] was 0.009 nM and the “induction of IFN-γ secretion from CD4+CD25- T cells co-cultured with B cells, 100 ng/ml SEB, antibody at 10 µg/ml” value [2] was greater than 2.5 fold. The “proliferation of CD4+CD45RO+ memory T cells, CHO-svCD3-CD32a co-culture (EC50)” value [2] was 0.005 nM, the EC50 [9] was 0.022 to 0.076 nM and the EC50 [10] was roughly 5 ng/mL. For the same binder, the EC50 [11] was 0.022 to 0.076 nM and the EC50 [4] was 0.092 nM.

B3: Fab fragment of BMS-986215 (Fab, V domains shown)
VH: B2 VH
VL: AIQLTQSPSSLSASVGDRVTITCRASQGISSALAWYQQKPGKAPKLLINDASSLESGVPSRFSGSGSGTDFTLTISSLQPEDFATYYCQQFNNYPRTFGQGTKVEIK
B3 was tested, and the Kd [12] was 13 to 16 nM, the Kd [13] was 41 to 44 nM and the “fold loss of affinity from 25° C. to 37° C.” value [14] was 3 fold.
